{"source": "patent US20110212084A1", "about": "(AstraZeneca / MedImmune, published 2011)", "binders": {"B1": {"name": "Antibody 15 (IgG) (antibody, V domains shown)", "VH": "EVQLLESGGGLVQPGGSLRLSCAAPGFTFSSYAMSWVRQAPGKGLEWVSAISGGSGGRTYYADSVKGRFTISRDNSKNTLYLQMNSLRAEDTAVYYCARHIAVAGTRGFDYWGRGTLVTVSS", "VL": "SYVLTQPPSVSVSPGQTASITCSGDKLGDTYASWYRQRSGQSPVLVIYQDDRRPSGIPERFSGSNSGNTATLTISGTHTMDEADYYCLAWDTRTSGAVFGGGTKLTVL"}, "B2": {"name": "Antibody 9 (IgG) (antibody, V domains shown)", "VH": "B1 VH with P25S", "VL": "B1 VL with Y2F, T5S, R52K"}, "B3": {"name": "Antibody 1 (IgG) (antibody, V domains shown)", "VH": "not shown", "VL": "B1 VL with T30K, R52K", "notes": "also called parent antibody"}, "B4": {"name": "Antibody 33 (IgG) (antibody, V domains shown)", "VH": "B1 VH with R19S, R73K", "VL": "B1 VL with Q41L, V44A, R52K"}, "B5": {"name": "Antibody 33GL (germlined IgG) (antibody, V domains shown)", "VH": "B1 VH with R19S, R73K", "VL": "B1 VL with V3E, R36Q, R38K, S39P, Q41L, V44A, R52K, H78Q, T79A", "notes": "germlined IgG; also called Antibody 35 (provisional application)"}}, "key": {"[1]": {"target": "T1, cynomolgus IgE (recombinant chimaeric D12 variable region / cynomolgus IgE constant region) (cynomolgus monkey (constant region))", "T1 sequence (heavy, as listed by the source limits assumed, chain 1 of 2)": "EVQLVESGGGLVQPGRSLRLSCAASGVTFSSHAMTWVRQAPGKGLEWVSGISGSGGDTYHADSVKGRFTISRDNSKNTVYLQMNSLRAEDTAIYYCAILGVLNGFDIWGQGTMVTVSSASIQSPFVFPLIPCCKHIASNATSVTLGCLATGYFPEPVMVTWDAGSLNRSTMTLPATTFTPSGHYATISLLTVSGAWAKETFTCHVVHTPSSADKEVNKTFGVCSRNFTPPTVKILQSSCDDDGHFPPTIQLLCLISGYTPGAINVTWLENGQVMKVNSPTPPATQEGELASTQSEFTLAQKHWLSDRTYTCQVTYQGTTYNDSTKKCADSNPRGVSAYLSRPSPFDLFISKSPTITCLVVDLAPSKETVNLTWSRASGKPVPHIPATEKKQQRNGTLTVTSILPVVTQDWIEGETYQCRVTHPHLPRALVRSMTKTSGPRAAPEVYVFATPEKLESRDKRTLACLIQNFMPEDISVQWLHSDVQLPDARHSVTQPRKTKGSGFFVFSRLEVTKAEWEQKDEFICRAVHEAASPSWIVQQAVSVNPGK", "T1 sequence (light, as listed by the source limits assumed, chain 2 of 2)": "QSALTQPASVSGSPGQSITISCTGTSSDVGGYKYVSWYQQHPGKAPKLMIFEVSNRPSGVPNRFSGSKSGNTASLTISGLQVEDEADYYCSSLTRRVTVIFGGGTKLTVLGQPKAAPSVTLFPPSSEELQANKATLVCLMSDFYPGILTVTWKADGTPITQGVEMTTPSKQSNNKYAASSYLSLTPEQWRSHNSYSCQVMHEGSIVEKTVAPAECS", "experiment": "cell-based or functional assay"}, "[2]": {"target": "human IgEλ (U266 derived) (human, UniProt P01854 1-546)", "experiment": "cell-based or functional assay"}, "[3]": {"target": "T1, cynomolgus IgE (recombinant chimaeric …)", "experiment": "SPR, BIAcore 2000; cynomolgus IgE amine-coupled to CM5 chip, IgG as analyte, bivalent analyte model; geomean", "method": "(§1) The binding affinity of purified IgG samples of a representative number of clones to human and cynomolgus IgE was determined by surface plasmon resonance using BIAcore 2000 biosensor (BIAcore AB) essentially as described by Karlsson et al 1991; Journal of Immunological Methods 145 (1-2) 229-240. In brief, purified human or cynomolgus IgE was covalently coupled to the surface of a CM5 sensor chip (BIAcore) using standard amine coupling reagents according to the manufacturer's instructions to provide a surface density of 100 RU. IgG samples prepared in HBS-EP buffer (BIAcore (AB), at a range of concentrations, between 250 nM and 15.6 nM were passed over the sensor chip surface. The surface was regenerated using 10 mM Glycine, pH 1.75 between each injection of antibody. The resulting sensorgrams were evaluated using BIA evaluation 3.1 software and fitted to a bivalent analyte model, to provide relative binding data."}, "[4]": {"target": "T2, human IgE (source not stated for the assay) (human, UniProt P01854-1 1-428)", "T2 construct": "also called purified human IgE; IgE (Calbiochem or U266-derived)", "T2 sequence (P01854 other isoform, or with tags, fused parts or gaps)": "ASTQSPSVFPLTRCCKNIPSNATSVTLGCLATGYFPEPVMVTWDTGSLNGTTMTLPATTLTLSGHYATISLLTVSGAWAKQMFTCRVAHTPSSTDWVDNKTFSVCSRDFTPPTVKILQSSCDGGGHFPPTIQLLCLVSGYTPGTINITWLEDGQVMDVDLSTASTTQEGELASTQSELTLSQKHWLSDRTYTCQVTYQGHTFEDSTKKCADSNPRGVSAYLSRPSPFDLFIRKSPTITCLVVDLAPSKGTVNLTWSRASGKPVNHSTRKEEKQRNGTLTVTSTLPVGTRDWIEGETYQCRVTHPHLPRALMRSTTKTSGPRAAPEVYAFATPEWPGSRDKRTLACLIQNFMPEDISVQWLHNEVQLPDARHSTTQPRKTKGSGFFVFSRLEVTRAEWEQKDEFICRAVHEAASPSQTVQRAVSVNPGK", "experiment": "SPR, BIAcore 2000; IgE amine-coupled to CM5 chip, IgG as analyte, bivalent analyte model; geomean", "method": "as §1"}, "[5]": {"target": "T3, Cynomolgus Cε3-4 FLAG His10 (cynomolgus monkey)", "T3 construct": "also called cynomolgus IgE Cε3-Cε4 domain (in house HEK-EBNA derived)", "T3 chain": "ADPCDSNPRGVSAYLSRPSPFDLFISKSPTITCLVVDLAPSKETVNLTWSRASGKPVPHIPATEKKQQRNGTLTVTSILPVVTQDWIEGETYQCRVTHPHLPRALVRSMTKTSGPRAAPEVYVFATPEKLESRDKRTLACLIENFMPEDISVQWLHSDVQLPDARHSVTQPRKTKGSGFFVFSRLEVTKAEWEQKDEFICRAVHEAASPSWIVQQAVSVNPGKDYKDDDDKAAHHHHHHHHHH", "experiment": "DELFIA epitope competition; competitor vs biotinylated human IgE on immobilised IgG", "method": "(§2) Purified IgG were adsorbed onto 96-well Maxisorp microtitre plates (Nunc) in PBS at a concentration which gave a significant signal when biotinylated human IgE was added at approximately its estimated KD for that particular IgG. Excess IgG was washed away with PBS-Tween (0.1% v/v) and the wells were blocked with PBS-Marvel (3% w/v) for 1 h. […] To this series, an equal volume of biotinylated human IgE at a concentration of approximately the KD was added (resulting in a series starting at a ratio of competitor antigen:biotinylated human IgE of approximately 1000:1). These mixtures were then transferred onto the blocked IgG and allowed to equilibrate for 1 h. Unbound antigen was removed by washing with PBS-Tween (0.1% v/v), while the remaining biotinylated human IgE was detected by streptavidin-Europium3+ conjugate (DELFIA® detection, PerkinElmer). Time-resolved fluorescence was measured at 620 nm on an EnVision plate reader (PerkinElmer). Fluorescence data were analysed using either Graphpad Prism or Microsoft Excel software."}, "[6]": {"target": "T4, human IgE Cε3-Cε4 domain, C-terminally tagged with FLAG His10 (human, UniProt P01854-1 209-428, limits assumed)", "T4 construct": "domain: Cε3-Cε4; secreted with murine IgG1 leader from HEK293-EBNA cells; also called human IgE Ce3-4; human IgE Cε3-Cε4 domain (in house HEK-EBNA derived)", "T4 sequence (P01854 other isoform, or with tags, fused parts or gaps limits assumed)": "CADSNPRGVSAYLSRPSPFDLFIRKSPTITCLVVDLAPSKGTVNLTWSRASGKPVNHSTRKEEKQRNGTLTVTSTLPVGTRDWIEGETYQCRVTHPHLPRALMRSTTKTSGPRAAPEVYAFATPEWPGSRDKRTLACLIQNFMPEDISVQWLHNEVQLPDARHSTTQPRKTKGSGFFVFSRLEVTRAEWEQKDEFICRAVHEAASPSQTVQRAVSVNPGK", "experiment": "DELFIA epitope competition; competitor vs biotinylated human IgE on immobilised IgG", "method": "as §2"}, "[7]": {"target": "T2, human IgE (source not stated for the …)", "experiment": "cell-based or functional assay"}, "[8]": {"target": "T5, human IgEλ (U266 derived) (human, UniProt P01854 1-546)", "experiment": "cell-based or functional assay", "remark": "listed apart in the source"}, "[9]": {"target": "T5, human IgEλ (U266 derived)", "experiment": "flow cytometry competition; IgG titrated, mixed with IgE (U266, 10 µg/mL), IgE binding to CD23 on IL-4 treated IM9 cells", "method": "Some of these optimised antibodies were evaluated for inhibition of the IgE/CD23 interaction using the IM9 binding assay as previously described.\nAntibody dilutions (667 nM to 1 nM) were prepared in U-bottomed polypropylene plates (Greiner) and mixed with IgE (U266-derived [Ikeyama et. al. 1986. Molecular Immunology 23 (2); p159-167]) to a final IgE concentration of 10 μg/mL for 30 minutes at room temperature. Cell plates were spun at 2000 rpm for 2 minutes and supernatant was aspirated, leaving the cell pellet intact. Cells were resuspended in 100 μL/well antibody/IgE mix and incubated on ice for 1 hour. Cell plates were centrifuged at 2000 rpm for 2 minutes and antibody/IgE supernatants were aspirated. Cells were washed by resuspending in 200 μL/well of Flow buffer and centrifuging as above.\nIgE bound to the cell surface was detected with anti-IgE-phycoerythin (Caltag) diluted 1/30, v/v, 100 μL/well. Assay plates were incubated on ice for 20 minutes in the dark before centrifuging at 2000 rpm for 2 minutes and washing with 2×200 μL of Flow buffer as described above. Cells were resuspended in 100 μL Cell Fix (BD biosciences) and analysed using a FACSCalibur (BD Biosciences) to detect FL2 staining."}, "[10]": {"target": "T5, human IgEλ (U266 derived)", "experiment": "cell-based or functional assay", "remark": "listed apart in the source"}}, "note": "Substitutions are numbered along the chain they refer to."}
{"binder": "B1", "values": [{"measurement": "RBL-ER51 calcium signalling IC50 (nM) Geomean, cynomolgus IgE 100 ng/ml", "setting": "[1]", "result": 5.4, "unit": "nM"}, {"measurement": "RBL-ER51 calcium signalling IC50 (nM) Geomean, human IgE 25 ng/ml", "setting": "[2]", "result": 0.341, "unit": "nM"}, {"measurement": "Kd", "setting": "[3]", "result": 7, "unit": "nM"}, {"measurement": "Kd", "setting": "[4]", "result": 0.9, "unit": "nM"}]}
{"binder": "B2", "values": [{"measurement": "RBL-ER51 calcium signalling IC50 (nM) Geomean, cynomolgus IgE 100 ng/ml", "setting": "[1]", "result": 4.5, "unit": "nM"}, {"measurement": "RBL-ER51 calcium signalling IC50 (nM) Geomean, human IgE 25 ng/ml", "setting": "[2]", "result": 0.286, "unit": "nM"}, {"measurement": "Kd", "setting": "[4]", "result": 79, "unit": "nM"}]}
{"binder": "B3", "values": [{"measurement": "binding result", "setting": "[5]", "result": "no binding"}, {"measurement": "binding result", "setting": "[6]", "result": "no binding"}, {"measurement": "RBL-ER51 calcium signalling IC50", "setting": "[7]", "result": 267, "unit": "nM"}]}
{"binder": "B4", "values": [{"measurement": "RBL-ER51 calcium signalling IC50 (nM) Geomean, cynomolgus IgE 100 ng/ml", "setting": "[1]", "result": 5.1, "unit": "nM"}, {"measurement": "RBL-ER51 calcium signalling IC50 (nM) Geomean, human IgE 25 ng/ml", "setting": "[8]", "result": 0.112, "unit": "nM"}, {"measurement": "Kd", "setting": "[3]", "result": 2.3, "unit": "nM"}, {"measurement": "Kd", "setting": "[4]", "result": 0.8, "unit": "nM"}, {"measurement": "IC50", "setting": "[9]", "result": 83, "unit": "nM"}]}
{"binder": "B5", "values": [{"measurement": "binding result", "setting": "[5]", "result": "no binding"}, {"measurement": "binding result", "setting": "[6]", "result": "no binding"}, {"measurement": "Kd", "setting": "[4]", "result": 0.142, "unit": "nM"}, {"measurement": "RBL-ER51 calcium signalling IC50 (nM) Human IgE Geomean", "setting": "[10]", "result": 0.197, "unit": "nM"}]}
